Results published in patent US20110312897.

Test system: C-terminally 6xHIS tagged, full-length recombinant histone H3

Row | Substance | H3 cleavage assay with pre-activated enzyme, immunoblot with HIS and H3.cs1 antibodies
1 | recombinant Cathepsin B (R&D Systems Cat No. BAF965) | Cathepsin B cleaves rH3 with a distinct pattern from Cathepsins K or L and does not significantly produce the H3.cs1 epitope
2 | recombinant Cathepsin K (Calbiochem Cat. No. 342001) | Cathepsin K produces a similar pattern to Cathepsin L under these assay conditions
